Measured values from article PMC11724882, “Molecular basis for the enzymatic inactivity of class III glutaredoxin ROXY9 on standard glutathionylated substrates” (Nature Communications, 2025).
“And” between values parts separate entries of the source, which are not always exact repeats. Equal values may be shown once.

How the values were obtained:
Cys22 [1] = target: Cys22 (UniProt position 23, FIKPTCPFCRK); settings: cited from earlier work
Cys23 [2] = target: Cys23 (UniProt position 23, FSKTYCPYSVR); assay: chemical modification; settings: buffers at a normality of 0.1; no added salt stated; citrate pH 2.0-6.0; KH2PO4/Na2HPO4 pH 6.5-8.0; Na2B4O7 pH 8.5-10.0. Protein was desalted into 5 mM HEPES pH 7.0. 10 µl protein was mixed with 40 µl pH buffer and 5 µl 100 mM IAM.; Pre-reduced with 10 mM DTT and desalted; no glutathione or other ligand; native protein during the IAM step.
Cys21 [3] = target: Cys21 (UniProt position 21, FTKSSCSLSYA); assay: chemical modification; settings: buffers at a normality of 0.1; no added salt stated; citrate pH 2.0-6.0; KH2PO4/Na2HPO4 pH 6.5-8.0; Na2B4O7 pH 8.5-10.0. Protein was desalted into 5 mM HEPES pH 7.0. 10 µl protein was mixed with 40 µl pH buffer and 5 µl 100 mM IAM.; Pre-reduced with 10 mM DTT and desalted; no glutathione or other ligand; native protein during the IAM step.
Cys22 [4] = target: Cys22 (UniProt position 23, FIKPTCPFARK); settings: cited from earlier work
Cys22 [5] = target: Cys22 (UniProt position 23, FIKPTCPFSRK); settings: cited from earlier work
Cys23 [6] = target: Cys23 (UniProt position 23, FSKTYCPYCVR); assay: chemical modification; settings: buffers at a normality of 0.1; no added salt stated; citrate pH 2.0-6.0; KH2PO4/Na2HPO4 pH 6.5-8.0; Na2B4O7 pH 8.5-10.0. Protein was desalted into 5 mM HEPES pH 7.0. 10 µl protein was mixed with 40 µl pH buffer and 5 µl 100 mM IAM.; Pre-reduced with 10 mM DTT and desalted; no glutathione or other ligand; native protein during the IAM step.
Cys21 [7] = target: Cys21 (UniProt position 21, FTKSSCCLCYA); assay: chemical modification; settings: buffers at a normality of 0.1; no added salt stated; citrate pH 2.0-6.0; KH2PO4/Na2HPO4 pH 6.5-8.0; Na2B4O7 pH 8.5-10.0. Protein was desalted into 5 mM HEPES pH 7.0. 10 µl protein was mixed with 40 µl pH buffer and 5 µl 100 mM IAM.; Pre-reduced with 10 mM DTT and desalted; no glutathione or other ligand; native protein during the IAM step.
[8] = target: the molecule itself; assay: SEC; analytical gel filtration of the affinity-purified strep-MBP fusion proteins (purified in the presence of 5 mM GSH); strep-MBP-ROXY9 also after DTT treatment

## Pig glutaredoxin (liver thioltransferase), wild type (Sus scrofa)
Cys22 [1]
  pKa: 3.8

## Glutaredoxin GRXC2-CSS variant (only CysA retained), strep-MBP fusion (Arabidopsis thaliana; C26S;C80S)
Cys23 [2]
  pKa: between 3.5 and 4.0

## Glutaredoxin ROXY9 single-cysteine variant (only Cys21 retained), strep-MBP fusion (Arabidopsis thaliana; C22S;C24S;C49S;C61S)
Cys21 [3]
  pKa: between 6 and 7

## Pig glutaredoxin (liver thioltransferase) C25A (Sus scrofa; C25A)
Cys22 [4]
  pKa: 5.9

## Pig glutaredoxin (liver thioltransferase) C25S (Sus scrofa; C25S)
Cys22 [5]
  pKa: 4.9

## Glutaredoxin GRXC2 (class I GRX), strep-MBP fusion, wild type (Arabidopsis thaliana)
Cys23 [6]
  pKa: between 3.0 and 3.5

## Glutaredoxin ROXY9 (class III / CC-type GRX, CEPD2), strep-MBP fusion, wild type (Arabidopsis thaliana)
Cys21 [7]
  pKa: between pH 4 and 4.5

B1: strep-MBP-ROXY9 (enzyme, Arabidopsis thaliana, UniProt O82255 1-102, looked up)
chain: MDKVMRMSSEKGVVIFTKSSCCLCYAVQILFRDLRVQPTIHEIDNDPDCREIEKALLRLGCSTAVPAVFVGGKLVGSTNEVMSLHLSGSLVPLIKPYQSILY
notes: class III glutaredoxin ROXY9, Arabidopsis thaliana, AT2G47880; ORF inserted into a variant of MacroLab vector 438-C (modified pFastBac, Addgene plasmid 48296) in which the His-tag was exchanged for Strep-tag II; a TEV site lies between the tag and ROXY9; also called class III GRX ROXY9; CEPD2; source: Hi5 insect cells (baculovirus), purified (MBPTrap, eluted with maltose, 5 mM GSH in buffer)
[8]
  stoichiometry N: 2 and 3
